# Laboratory results from patent US20260275319A1 (MAX PLANCK GESELLSCHAFT ZUR F RDERUNG DER WISSENSCHAFTEN E V, published 2026).
# Primed or numbered codes have the meaning given here. Ends that are not written are not given here. FITC′ = fluorescein isothiocyanate label; Ahx = NCCCCCC(=O)O
# B1: M. jannaschii Adriase S1A mutant with C-terminal His-tag (enzyme)
# chain: ALIICYYGKNGAVIGGDRRQIFFRGSEENRKILEEKLYSGEIKSEEELYKLAEKLNIKIIIEDDREKVRKISDSVVCGEVRSLGIDAKRRRVYATKGKCAIVDILNDTVTNQTIKEGFGIVVLGNRFLKKKAEEELKRTAKLFPMMPIQQIEDAIKEIFEKLKWHPTVSKEYDIYSVNKYEKNFEEVIKKDIESLFKYREQLRKQLIDFGKVMSIVNKIVKNGEIGVIKDGKLHLYDDYIAIDKIDPNPKVFKVVDVEGNFKDGDIVVIENGDMKIKGTNEKVTTKYIIIHKGSHHHHHH
# notes: The entry is the S1A mutant itself
# B2: (0)KDPGA(10) peptide, M. jannaschii MtrA-derived, C-terminal FITC (peptide)
# peptide: KDPGAIDEDPFIIEL-{K(FITC)}
# notes: Synthetic peptide (Genscript)
# B3: (10)KDPGA(10) peptide, M. jannaschii MtrA-derived, C-terminal FITC (peptide)
# peptide: ITQAIKECLSKDPGAIDEDPFIIEL-{K(FITC)}
# B4: M. jannaschii MtrA^Δ194-245 (enzyme)
# chain: MHHHHHHGSMVMSMANKREPAPGWPIVSGEYVVGNPESCVGVVTLGSHGLEQACIDAGAAIAGPCHTENLGIEKVVANYISNPNIRFMILCGSEVQGHITGQCFKALWENGIGDDGGIIGAKGAIPFLENVNKEAVERFRRQIVEVVDLIDCEDIGKITQAIKECLSKDPGAIDEDPFIIELEGGKGGGEEEEGVIKPITPE
# notes: For MST it was labelled with NT-647-NHS; also called MJ_0851
# B5: (5)KDPGA(10) peptide, M. jannaschii MtrA-derived, C-terminal FITC (peptide)
# peptide: KECLSKDPGAIDEDPFIIEL-{K(FITC)}
# notes: Synthetic peptide (Genscript); also called (5)KDPGA(10F)
# B6: (15)KDPGA(10) peptide, M. jannaschii MtrA-derived, N-terminal FITC-Ahx (peptide)
# peptide: {FITC′-Ahx}-EDIGKITQAIKECLSKDPGAIDEDPFIIEL
# notes: Synthetic peptide (Genscript); also called (F15)KDPGA(10)
# B7: M. jannaschii Ub-KDPGA(10) (other)
# chain: MHHHHHHGSMKIKIVPAVGGGSPLELEVAPNATVGAVRTKVCAMKKLPPDTTRLTYKGRALKDTETLESLGVADGDKFVLITRTVGGCGEKDPGAIDEDPFIIEL
# notes: also called Ubiquitin fused to KDPGA(10)
# B8: M. mazei Adriase with C-terminal Strep-tag (enzyme)
# chain: TLVIAFIGKNGAVMAGDMREITFEGEKPDREKLEKELYSGSIVTDEEMQKKAEEFGVKITVADCKEKVSERNGVLVGEVSSAEGGVVKKRRLYASAGNFAIAELINTEMTLTSQGKGSNFIAFGNEFTKQVANKCFKDNWTKKSNLQDAVKILILCMETVARKTASVSKQFMIVQTASNADVLKVVEKDRNCGSWSHPQFEK
# notes: also called MM_2909; Archaeal Peptide Recombinase
# B9: M. jannaschii Adriase without NTN, with C-terminal His-tag (enzyme)
# chain: MEQLRKQLIDFGKVMSIVNKIVKNGEIGVIKDGKLHLYDDYIAIDKIDPNPKVFKVVDVEGNFKDGDIVVIENGDMKIKGTNEKVTTKYIIIHKGSHHHHHH
# notes: also called Adriase^ΔNTN
# B10: M. mazei Adriase with C-terminal His-tag (enzyme)
# chain: TLVIAFIGKNGAVMAGDMREITFEGEKPDREKLEKELYSGSIVTDEEMQKKAEEFGVKITVADCKEKVSERNGVLVGEVSSAEGGVVKKRRLYASAGNFAIAELINTEMTLTSQGKGSNFIAFGNEFTKQVANKCFKDNWTKKSNLQDAVKILILCMETVARKTASVSKQFMIVQTASNADVLKVVEKDRNCGSHHHHHH
# notes: Active form without start-methionine; also called M. mazei Adriase-His6; MM_2909
# Experiments:
# [1] = biological target: B6; assay: microscale thermophoresis (MST), fitted curve, peptide (15)KDPGA(10)
# [2] = biological target: B2; assay: microscale thermophoresis (MST), fitted curve, peptide (0)KDPGA(10)
# [3] = biological target: B4; assay: microscale thermophoresis (MST), fitted curve
# [4] = biological target: T1, M. jannaschii MtrA^Δ174-245 with N-terminal His6-tag (Methanocaldococcus jannaschii, UniProt Q58261 1-169); assay: microscale thermophoresis (MST), fitted curve, MtrA^Δ174-245
# T1 sequence: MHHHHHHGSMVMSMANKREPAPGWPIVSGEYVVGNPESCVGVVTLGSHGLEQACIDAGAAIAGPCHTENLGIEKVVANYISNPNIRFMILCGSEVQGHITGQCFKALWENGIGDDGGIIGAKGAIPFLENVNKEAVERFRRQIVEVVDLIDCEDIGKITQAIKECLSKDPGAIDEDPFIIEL
# [5] = biological target: B5; assay: microscale thermophoresis (MST), fitted curve, peptide (5)KDPGA(10)
# [6] = biological target: B3; assay: microscale thermophoresis (MST), fitted curve, peptide (10)KDPGA(10)
# [7] = biological target: B1; assay: microscale thermophoresis (MST); table row (0)KDPGA(10)
# [8] = biological target: B1; assay: microscale thermophoresis (MST); table row (10)KDPGA(10)
# [9] = biological target: B1; assay: microscale thermophoresis (MST), three measurements; table row MtrA
# [10] = biological target: B1; assay: microscale thermophoresis (MST); table row (5)KDPGA(10)
# [11] = biological target: B1; assay: microscale thermophoresis (MST); table row (15)KDPGA(10)
# [12] = biological target: T2, M. jannaschii Adriase with C-terminal His-tag (Methanocaldococcus jannaschii, UniProt Q57968 2-293); assay: SDS-PAGE time course of the reaction in the presence of MtrA, band of the covalent conjugate
# T2 construct: Active enzyme; also called unmodified Adriase; MJ_0548
# T2 sequence: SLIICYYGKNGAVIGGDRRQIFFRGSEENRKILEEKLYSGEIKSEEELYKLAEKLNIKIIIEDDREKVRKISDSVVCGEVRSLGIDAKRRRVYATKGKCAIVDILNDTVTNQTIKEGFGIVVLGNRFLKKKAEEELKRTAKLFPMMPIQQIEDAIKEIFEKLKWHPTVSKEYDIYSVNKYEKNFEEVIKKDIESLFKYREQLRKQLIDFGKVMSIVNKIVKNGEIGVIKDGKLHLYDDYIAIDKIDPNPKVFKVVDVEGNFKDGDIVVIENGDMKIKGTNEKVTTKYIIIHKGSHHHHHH
# [13] = biological target: T3, MtrE of M. mazei (subunit of the MtrA-MtrH complex), from whole cell extract (Methanosarcina mazei); assay: pulldown from M. mazei whole cell extract with Strep-tagged Adriase, LC-MS/MS (Experiment 2.1)
# T3 sequence (P80651 whole entry, looked up): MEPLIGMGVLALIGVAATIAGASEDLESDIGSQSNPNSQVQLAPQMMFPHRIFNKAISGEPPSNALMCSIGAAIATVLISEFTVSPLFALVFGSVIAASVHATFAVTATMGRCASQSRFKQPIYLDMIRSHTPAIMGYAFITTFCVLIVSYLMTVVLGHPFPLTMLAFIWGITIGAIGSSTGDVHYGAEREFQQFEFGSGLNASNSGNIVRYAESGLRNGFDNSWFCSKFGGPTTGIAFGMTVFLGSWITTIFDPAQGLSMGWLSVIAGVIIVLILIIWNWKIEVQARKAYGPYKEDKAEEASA
# [14] = biological target: T4, MtrH of M. mazei (subunit of the MtrA-MtrH complex), from whole cell extract (Methanosarcina mazei); assay: as above
# T4 sequence (P80650 1-316, looked up): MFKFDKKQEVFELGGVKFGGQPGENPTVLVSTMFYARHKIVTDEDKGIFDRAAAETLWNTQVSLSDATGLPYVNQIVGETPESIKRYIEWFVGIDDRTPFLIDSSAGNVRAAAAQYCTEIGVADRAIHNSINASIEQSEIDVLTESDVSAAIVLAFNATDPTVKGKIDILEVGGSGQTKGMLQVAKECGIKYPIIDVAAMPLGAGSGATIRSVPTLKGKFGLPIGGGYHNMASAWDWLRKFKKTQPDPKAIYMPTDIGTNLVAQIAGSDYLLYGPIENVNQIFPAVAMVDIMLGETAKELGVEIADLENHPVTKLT
# [15] = biological target: T5, MtrB of M. mazei (subunit of the MtrA-MtrH complex), from whole cell extract (Methanosarcina mazei); assay: as above
# T5 sequence (P80655 whole entry, looked up): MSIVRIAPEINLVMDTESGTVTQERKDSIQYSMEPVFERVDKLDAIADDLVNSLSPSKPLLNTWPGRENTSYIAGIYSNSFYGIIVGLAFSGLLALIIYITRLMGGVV
# [16] = biological target: T6, MtrG of M. mazei (subunit of the MtrA-MtrH complex), from whole cell extract (Methanosarcina mazei); assay: as above
# T6 sequence (P80656 whole entry, looked up): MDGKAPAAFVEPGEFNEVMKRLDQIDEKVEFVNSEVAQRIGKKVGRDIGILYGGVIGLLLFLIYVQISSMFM
# [17] = biological target: B4; assay: size-exclusion chromatography with light scattering (SEC-MALS) of the 1:1 molar mixture
# BSA = biological target: T7, BSA (UniProt P02769 25-607); assay: pulldown on Ni-NTA beads with His6-tagged Adriase, SDS-PAGE of flow-through, washes and eluate
# T7 construct: also called control protein BSA
# [18] = biological target: T8, M. mazei Ub-(5)KDPGA(10) with N-terminal His-tag; assay: SDS-PAGE time course of Adriase with Ub-(5)KDPGA(10), band of the covalent conjugate
# T8 chain: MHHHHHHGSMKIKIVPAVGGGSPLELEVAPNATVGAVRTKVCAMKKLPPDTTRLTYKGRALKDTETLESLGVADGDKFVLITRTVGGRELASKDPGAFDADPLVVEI
# T7 sequence (P02769 25-607 limits assumed): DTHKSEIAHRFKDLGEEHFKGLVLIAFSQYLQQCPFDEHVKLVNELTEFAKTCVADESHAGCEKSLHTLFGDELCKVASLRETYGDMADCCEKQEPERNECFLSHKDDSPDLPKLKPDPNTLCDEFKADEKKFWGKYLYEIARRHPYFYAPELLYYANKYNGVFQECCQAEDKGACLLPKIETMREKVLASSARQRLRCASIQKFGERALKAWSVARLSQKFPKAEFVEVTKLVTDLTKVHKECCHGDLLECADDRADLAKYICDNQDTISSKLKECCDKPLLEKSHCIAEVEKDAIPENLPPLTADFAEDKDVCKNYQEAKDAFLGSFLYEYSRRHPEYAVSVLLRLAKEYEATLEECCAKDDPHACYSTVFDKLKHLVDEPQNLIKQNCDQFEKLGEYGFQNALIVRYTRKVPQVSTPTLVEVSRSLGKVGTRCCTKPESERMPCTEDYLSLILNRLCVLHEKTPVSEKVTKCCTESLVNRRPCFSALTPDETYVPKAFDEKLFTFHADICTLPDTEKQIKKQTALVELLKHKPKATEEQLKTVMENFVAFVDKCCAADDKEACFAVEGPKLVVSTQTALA
binder,measurement,setting,value
B1,EC50 (read off the curve),[1],~80 nM
same,EC50 (read off the curve),[2],~400 nM
same,EC50 (read off the curve),[3],~200 nM
same,EC50 (read off the curve),[4],~600 nM
same,EC50 (read off the curve),[5],~100 nM
same,EC50 (read off the curve),[6],~200 nM
B2,Kd,[7],363 nM
B3,Kd,[8],168 nM
B4,Kd,[9],129 nM
B5,Kd,[10],121 nM
B6,Kd,[11],74 nM
B7,binding result,[12],binds
B8,Intensity (mass spectrometry),[13],2.1e+06 arbitrary units
same,Intensity (mass spectrometry),[14],6e+07 arbitrary units
same,Intensity (mass spectrometry),[15],1.4e+06 arbitrary units
same,Intensity (mass spectrometry),[16],860000 arbitrary units
B9,binding result,[17],no binding
B10,binding result,BSA,no binding
same,binding result,[18],binds
